This is an account of results in the DeepSol protein solubility set.

The series is described as follows: soluble on expression in E. coli; label from the status in PepcDB or PDB records.
Turning to “MATNKERLFAAGALGPGSGYPGAGFPFAFPGALRGSPPFEMLSPSFRGLGQPDLPKEMASLSVETQSTSSEEMVPSSPSPPPPPRVYKPCFVCNDKSSGYHYGVSSCEGCKGFFRRSIQKNMVYTCHRDKNCIINKVTRNRCQYCRLQKCFEVGMSKEAVRNDRNKKKKEVKEEGSPDSYELSPQLEELITKVSKAHQETFPSLCQLGKYTTNSSADHRVQLDLGLWDKFSELATKCIIKIVEFAKRLPGFTGLSIADQITLLKAACLDILMLRICTRYTPEQDTMTFSDGLTLNRTQMHNAGFGPLTDLVFAFAGQLLPLEMDDTETGLLSAICLICGDRMDLEEPEKVDKLQEPLLEALRLYARRRRPSQPYMFPRMLMKITDLRGISTKGAERAITLKMEIPGPMPPLIREMLENPEMFEDDSSQPGPHPNASSEDEVPGGQGKGGLKSPA”, the “soluble on expression in E. coli” value is given as “soluble”.

Regarding “MATNKREKQLERECHEQKTSQAVCETKEELEKSWKDFQKVSNEYKEAVTACRKYVEEKSRPKRTVLDGDMGEPTEDQEDTNDHARRRRHHNHEGHHGNDMKHRENMDRKKHGTHVDHHGRVRRNGDHDPNDPNVDHTGHNHRVKRSIDDDPSDTTIDHTRHNHRRKRNQDDDPTDTTIDHTGHNHRRRRSDDHDPNDPNVDHTGHNHRRKRNHDDDPSDTTIDHTGHNHRRRRSDDHDPNDPNVDHIGHNHHRRKRNHDDDPSDTTIDHTGHNHRRRRSEDHDPNDPNVDHTGHNHRRRRDQDDDPSDTTIDHTGHNHRRRRSDDHDPNDPNVDHTGHNHKRRHVIASRSRRTVCSTAGHDQLSAMSSKFTKHCERENICLPDEDLPKGKQQDDILALQKLRAKKYSEYLTQVSKCYGKLHGQSSGNDSWAPSAQSQEQYNPVYPSLSGTPNFFSSSAQAYEAAPYYPAKSTAAKTTSKPVQKPYRRHHQRPNKAWSSGSQQFHLVTIDPSKPHEKPSVSKIAEAAPKPIFKVARGTVKTVNKRGTKGVQKMPNHRLEGNSWETNGLQNQTARGGGGGRGRGRGSGGRGRGGFNRGGRFNGAPKPSNNKDDIPYVHLPDDSPAITLNVSSENITAFHGFDSVFTTKHNFPVLIDNKIYGSCDHYYQICKVTDLTGVSSDKLNRGVRDENGKPIVETIEDAEKKSHSALAKDIIKAANISKEKVDEWRNSKGLETIQKALHAKVTQSAHLREALKESGDNILVHAFARDSIYGTGCTIPAIKKWLDDLSKAGVKHLKIPATFPLNKTTVQHCPVFAQGRNVLGVILMQLRQKISSGEIQVVDMSRIFNALRVNNAPAEPMDTSSKFGFISDTKSIGTF”, the “soluble on expression in E. coli” value is given as “not soluble”.

With “MATVKTVLVKGRCNSRGAYPLAVQVLHKRKKKVFYTGYSITPCEFDSFSGRVLFNGVYTMETVRRMNRTCRKICKILDKAIGILEREGNEYTTCDISRVYETLTGKVGFYSYFRERIRVLFDTGHEGTAKAYEATLHSMQKHLCKTDFPFAHLSSRLVIKYRDTLLEAGVGKNTIGFYLHNMKAVYRRGCLELNLVFPSPFCNIRIRSEKTVKQSLPMKQVKSLANLSLSVGTPECLARDVFMFSIYTRGMSFVDIAFLKKSDIFPGVIRYRRQKTGQLLEIGINRQIQNLLERYGDTSGDYLFPLVDESETPYSGYKKAYNRMRYALKKVS”, the “soluble on expression in E. coli” value was “not soluble”.

On to “MATVQVDIVTPERKVFQGEADIVIARGVEGELGVMAGHIPLVTPLKTAPVRIKQGDKETLIAVSGGFLEVRPDKVNILADTAELPEEIDVERAKKAKARHETILKRLDKTDKDYLRHKRALERAEVRLQVANSKS”, for which the “soluble on expression in E. coli” value is recorded as “soluble”.

For the sequence “MATVSRLRPYATTVFAEMSALATRIGAVNLGQGFPDEDGPPKMLQAAQDAIAGGVNQYPPGPGSAPLRRAIAAQRRRHFGVDYDPETEVLVTVGATEAIAAAVLGLVEPGSEVLLIEPFYDSYSPVVAMAGAHRVTVPLVPDGRGFALDADALRRAVTPRTRALIINSPHNPTGAVLSATELAAIAEIAVAANLVVITDEVYEHLVFDHARHLPLAGFDGMAERTITISSAAKMFNCTGWKIGWACGPAELIAGVRAAKQYLSYVGGAPFQPAVALALDTEDAWVAALRNSLRARRDRLAAGLTEIGFAVHDSYGTYFLCADPRPLGYDDSTEFCAALPEKVGVAAIPMSAFCDPAAGQASQQADVWNHLVRFTFCKRDDTLDEAIRRLSVLAERPATGVPRGLEHHHHHH”, the “soluble on expression in E. coli” value is given as “soluble”.

Turning to “MAVAGAVSGEPLVHWCTQQLRKTFGLDVSEEIIQYVLSIESAEEIREYVTDLLQGNEGKKGQFIEELITKWQKNDQELISDPLQQCFKKDEILDGQKSGDHLKRGRKKGRNRQEVPAFTEPDTTAEVKTPFDLAKAQENSNSVKKKTKFVNLYTREGQDRLAVLLPGRHPCDCLGQKHKLINNCLICGRIVCEQEGSGPCLFCGTLVCTHEEQDILQRDSNKSQKLLKKLMSGVENSGKVDISTKDLLPHQELRIKSGLEKAIKHKDKLLEFDRTSIRRTQVIDDESDYFASDSNQWLSKLERETLQKREEELRELRHASRLSKKVTIDFAGRKILEEENSLAEYHSRLDETIQAIANGTLNQPLTKLDRSSEEPLGVLVNPNMYQSPPQWVDHTGAASQKKAFRSSGFGLEFNSFQHQLRIQDQEFQEGFDGGWCLSVHQPWASLLVRGIKRVEGRSWYTPHRGRLWIAATAKKPSPQEVSELQATYRLLRGKDVEFPNDYPSGCLLGCVDLIDCLSQKQFKEQFPDISQESDSPFVFICKNPQEMVVKFPIKGNPKIWKLDSKIHQGAKKGLMKQNKAV”, the “soluble on expression in E. coli” value was “soluble”.

For the sequence “MAVAYEGQLTGHRGWVTSLACPQTPETATKVVSTSRDKTLLSWGPNPDRHSSECSYGLPDRRLEGHSAFVSDVALSNNGNFAVSASWDHSLRLWNLQNGQCQYKFLGHTKDVLSVAFSPDNRQIVSGGRDNALRVWNVKGECMHTLSRGAHTDWVSCVRFSPSLDAPVIVSGGWDNLVKVWDLATGRLVTDLKGHTNYVTSVTVSPDGSLCASSDKDGVARLWDLTKGEALSEMAAGAPINQICFSPNRYWMCAATEKGIRIFDLENKDIIVELAPEHQGSKKIVPECVSIAWSADGSTLYSGYTDNVIRVWGVSENA”, the “soluble on expression in E. coli” value is “not soluble”.

“MAVEDEGLRVFQSVKIKIGEAKNLPSYPGPSKMRDCYCTVNLDQEEVFRTKIVEKSLCPFYGEDFYCEIPRSFRHLSFYIFDRDVFRRDSIIGKVAIQKEDLQKYHNRDTWFQLQHVDADSEVQGKVHLELRLSEVITDTGVVCHKLATRIVECQGLPIVNGQCDPYATVTLAGPFRSEAKKTKVKRKTNNPQFDEVFYFEVTRPCSYSKKSHFDFEEEDVDKLEIRVDLWNASNLKFGDEFLGELRIPLKVLRQSSSYEAWYFLQPRDNGSKSLKPDDLGSLRLNVVYTEDHVFSSDYYSPLRDLLLKSADVEPVSASAAHILGEVCREKQEAAVPLVRLFLHYGRVVPFISAIASAEVKRTQDPNTIFRGNSLASKCIDETMKLAGMHYLHVTLKPAIEEICQSHKPCEIDPVKLKDGENLENNMENLRQYVDRVFHAITESGVSCPTVMCDIFFSLREAAAKRFQDDPDVRYTAVSSFIFLRFFAPAILSPNLFQLTPHHTDPQTSRTLTLISKTVQTLGSLSKSKSASFKESYMATFYEFFNEQKYADAVKNFLDLISSSGRRDPKSVEQPIVLKEGFMIKRAQGRKRFGMKNFKKRWFRLTNHEFTYHKSKGDQPLYSIPIENILAVEKLEEESFKMKNMFQVIQPERALYIQANNCVEAKDWIDILTKVSQCNQKRLTVYHPSAYLSGHWLCCRAPSDSAPGCSPCTGGLPANIQLDIDGDRETERIYSLFNLYMSKLEKMQEACGSKSVYDGPEQEEYSTFVIDDPQETYKTLKQVIAGVGALEQEHAQYKRDKFKKTKYGSQEHPIGDKSFQNYIRQQSETSTHSI”: the “soluble on expression in E. coli” value is listed as “soluble”.

On to “MAVKDNYCVIMGGGIGSRFWPFSRESHPKQFLDFFGTGRSLLQMTYDRFARFIPRENILVVTNELYVDKVREQLPEIEPDQILREPTRRNTAPCIAYASYHIYARNPKANIIVAPSDHLILREDEFVRAASEALEFVADHEHLVTLGIRPSRPETGYGYIQMAEEKTGDFIRVKTFTEKPNAEMASIFLASGEFLWNSGMFVWNVESILAAFRKHLPEVTSSLENGLAHFNTPEERRFIDQAFPYCPSISIDFGVMEKADNVLVMPVDFGWADLGTWGSLYELAQKDDAGNASLKTRTLFYEAERNIVTTDNPQKLVVVQGINDCIVAESGNVLLICRAEEEQRIKHFVADAALKYDKEYN”, for which the “soluble on expression in E. coli” value is given as “soluble”.

As to “MAVNQDTLYVKGDRNVEVTKREVTLGDLVSMECSNRVILPHLKTMKVLKIPENGEKRYVISILKIIACIHEKYPGLEVQNLGETDLIVTYEMQKTPSK”, the “soluble on expression in E. coli” value was “soluble”.

Consider “MAVREYQKKRRRERIFRAAMELFRNRGFQETTATEIAKAAHVSRGTFFNYYPYKEAVLLDYGSQLLAGLREEVRRLLAQGREPVEVLRHLFRVLAEGTAREKDLLLPMFYELLNPDPVRARAAFEALPLGDLIAEILKPLREQGVLRQDFSLERMGRTLADLYFLSALRWAAYTPGRDLAEELEKNLRLLLEGMLVREAPAPGGL”, for which the “soluble on expression in E. coli” value is given as “not soluble”.

Take “MAVSFKVKERKVMINGQPAKIRYAQTLKTGDMDLSEICDLTSKISAVSEGDVRSIINTVTGLVITGLKQGRAISLGELGRFRISLSSKAAKEGEEFTVENIRRARVLFLPGGDIRRACRQIRLKGINMLRPGEQQGGTPSVPDSPEGGGEQGSGGGGL”: the “soluble on expression in E. coli” value is listed as “not soluble”.

Regarding “MAVYTDITEDELRNFLTQYDVGSLTSYKGIAEGVENSNFLLHTTKDPLILTLYEKRVEKNDLPFFLGLMQHLAAKGLSCPLPLPRKDGELLGELSGRPAALISFLEGMWLRKPEAKHCREVGKALAAMHLASEGFEIKRPNALSVDGWKVLWDKSEERADEVEKGLREEIRPEIDYLAAHWPKDLPAGVIHADLFQDNVFFLGDELSGLIDFYFACNDLLAYDVSICLNAWCFEKDGAYNVTKGKALLEGYQSVRPLSEAELEALPLLSRGSALRFFLTRLYDWLTTPAGALVVKKDPLEYLRKLRFHRTIANVAEYGLAGE”, the “soluble on expression in E. coli” value is reported as “soluble”.

On to “MAWAPPMAKRRSAPATQAAARTPGWTLGGLATILKGFSGQVQFVPEDYPVWLNRVLAEAQTGRGTVGVLGGLHGDFPPLVSRGLLEPLDGLYARLQDRGFPQAFVELGRMGTPNQQYLPWMQATYVMVARKEALKYLPPGADLNALTYEDLKNWAKAIQEATGQRRLGFPAGPGGLIHRFLQGYLYPSYTGSQVRRFKSPEAEAMWRDFRELWRYVNPRSTAYEFMQEPLLSGEVWIAWDHTARLKDALVQRPQDFVAFPAPAGPKGRGFMPVVAGLAIPKTAPDKRAAEALVDYLTRPEVQLLTLKEVGFFPVVRARYGEDLPEGIRLLAEAVSAQSSAKDALPSLLPVGLGDKGGEFNKVYRDAFTRIVLRGEEIRRALDLEAQNLARILRETGAPCWPPDAPSTGACPVE”, for which the “soluble on expression in E. coli” value is given as “soluble”.

Consider “MAYATVEDMVARFGELEVLQLTDRNNEGLIDREVAQTALVDATAEIDAYLGRFRRPFEDLPPILVRLCCDIARYRLTAAQGVLITDEIRNRYKIDVLDLLRAMAKGEVQLGVDDSGEEVAAGEDGIVFVNGKNKVFGRDH”, for which the “soluble on expression in E. coli” value is recorded as “not soluble”.

For the sequence “MAYQLYRNTTLGNSLQESLDELIQSQQITPQLALQVLLQFDKAINSALAQRVRNRVNFRVRMSSCIWKSVLLTLRAYVDLTHHSKIWLVWFGNLFYNRCAKFIHSMCFRIAFRF”, the “soluble on expression in E. coli” value is “not soluble”.

As to “MCESDKLHDEINVIDIKIYPNRFLKPKTTELLLNKICGLEGYVRFLIHGPSLPKKVFYGPGKGHDVNHGDRKSILVNGNGIDLKVMVGEIIITVELDKFNDFMNQLEDILTETLSVEYSLLVGIFTRTTSTISDYLKYGIGFENLIDKRYIGLIDSRARSSESISIIKLEHHHHHH”, the “soluble on expression in E. coli” value was “not soluble”.

For “MCFIMSKRNTQLRRHTIVKLVNEQGEVSVEALSSQFETSEVTIRKDLASLEKNGQLLRRYGGAIALPKEVMHDELNEKVSVRKISLAKAAAKLIRDHNRIVIDSGSTTAALIQQLNDKRGLVVMTNSLHVANALNELENEPTLLMTGGTWDTHSESFQGKVAESVLRSYDFDQLFIGADGIDLDRGTTTFNELVGLSKVMAEVSREVIVMIESDKVGRKIPNLELSWDNIDVLVTDHELSDEFAKQIESHQVRVIRATVK”, the “soluble on expression in E. coli” value is “not soluble”.
